This is an account of results in the supplement of paper PMC5998384.

Series [1] relates to HeLa Kyoto. As to the kind of experiment: thermal stability score vs G1/S (z-score of summed log2 fold changes over temperatures); higher = more thermally stable than in G1/S.
Series [2] has as its system HeLa Kyoto. Put plainly: solubility change mitosis vs G1/S (difference of NP-40 vs SDS log2 ratios) (log2 ratio difference); higher = more soluble in mitosis.
Series [3] relates to HeLa Kyoto. As to the kind of experiment: solubility in G1/S (NP-40 vs SDS abundance) (log2 ratio); higher = more soluble. To be noted: cell cycle stage: G1/S.
Setting [4] is: cell cycle stage: early G1 (4.5 h after nocodazole release).
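For solubility change mitosis vs G1/S (difference of NP-40 vs SDS log2 ratios) in this document: synchronized HeLa Kyoto cells (double thymidine block for G1/S, nocodazole release for mitosis), protein amounts in NP-40 versus SDS lysates quantified by mass spectrometry, three biological replicates.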
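For solubility in G1/S (NP-40 vs SDS abundance) in this document: HeLa Kyoto cells arrested at G1/S by double thymidine block, proteins quantified by TMT10plex mass spectrometry in mild NP-40 versus SDS extracts, three biological replicates.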
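For thermal stability score vs G1/S (z-score of summed log2 fold changes over temperatures) in this document: synchronized HeLa Kyoto cells, proteins quantified by TMT10plex mass spectrometry, three biological replicates, mitosis taken 0.5 h after nocodazole release, G1/S directly after double thymidine block.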

As to “MGKMAAAVGSVATLATEPGEDAFRKLFRFYRQSRPGTADLEGVIDFSAAHAARGKGPGAQKVIKSQLNVSSVSEQNAYRAGLQPVSKWQAYGLKGYPGFIFIPNPFLPGYQWHWVKQCLKLYSQKPNVCNLDKHMSKEETQDLWEQSKEFLRYKEATKRRPRSLLEKLRWVTVGYHYNWDSKKYSADHYTPFPSDLGFLSEQVAAACGFEDFRAEAGILNYYRLDSTLGIHVDRSELDHSKPLLSFSFGQSAIFLLGGLQRDEAPTAMFMHSGDIMIMSGFSRLLNHAVPRVLPNPEGEGLPHCLEAPLPAVLPRDSMVEPCSMEDWQVCASYLKTARVNMTVRQVLATDQNFPLEPIEDEKRDISTEGFCHLDDQNSEVKRARINPDS [ALKBH1]”, the thermal stability score with HeLa Kyoto [1] (setting [4]) is -0.273; in the series with HeLa Kyoto [1] (cell cycle stage: mitosis), 0.558. Further, the “solubility change mitosis (log2)” value in the series with HeLa Kyoto [2] was -0.0399. Also, the “solubility in G1/S (log2)” value in the series with HeLa Kyoto [3] turned out to be 0.0175.

With “MGLSAAAPLWGPPGLLLAIALHPALSVPPRRDYCVLGAGPAGLQMAYFLQRAGRDYAVFERAPRPGSFFTRYPRHRKLISINKRYTGKANAEFNLRHDWNSLLSHDPRLLFRHYSRAYFPDARDMVRYLGDFADTLGLRVQYNTTIAHVTLDKDRQAWNGHYFILTDQKGQVHQCSVLFVATGLSVPNQVDFPGSEYAEGYESVSVDPEDFVGQNVLILGRGNSAFETAENILGVTNFIHMLSRSRVRLSWATHYVGDLRAINNGLLDTYQLKSLDGLLESDLTDLAILKDSKGKFHVTPKFFLEEANTNQSADSITLPQDDNDNFAMRVPYDRVIRCLGWNFDFSIFNKSLRLNSGNAFGKKYPLIRASYESKGSRGLFILGTASHSVDYRKSAGGFIHGFRYTVRAVHRLLEHRHHSVTWPATELPITQLTSSIVRRVNEASGLYQMFGVLADVILLKENSTAFEYLEEFPIQMLAQLETLTGRKAKHGLFVINMEYGRNFSGPDKDVFFDDRSVGHTEDAWQSNFLHPVIYYYRYLPTEQEVRFRPAHWPLPRPTAIHHIVEDFLTDWTAPIGHILPLRRFLENCLDTDLRSFYAESCFLFALTRQKLPPFCQQGYLRMQGLVSTESLWQHRVESRLLRDYAPTGRRLEDSSQQLGDQEPLGSPLAPGPLAQSVDSNKEEL [FOXRED2]”, the thermal stability score in the series on HeLa Kyoto [1] (setting [4]) was 0.289; in the series with HeLa Kyoto [1] (cell cycle stage: mitosis), 1.28. The “solubility change mitosis (log2)” value in the series with HeLa Kyoto [2] turned out to be 0.00992. Besides, the “solubility in G1/S (log2)” value with HeLa Kyoto [3] was -0.0337.

For “MGSENSALKSYTLREPPFTLPSGLAVYPAVLQDGKFASVFVYKRENEDKVNKAAKHLKTLRHPCLLRFLSCTVEADGIHLVTERVQPLEVALETLSSAEVCAGIYDILLALIFLHDRGHLTHNNVCLSSVFVSEDGHWKLGGMETVCKVSQATPEFLRSIQSIRDPASIPPEEMSPEFTTLPECHGHARDAFSFGTLVESLLTILNEQVSADVLSSFQQTLHSTLLNPIPKCRPALCTLLSHDFFRNDFLEVVNFLKSLTLKSEEEKTEFFKFLLDRVSCLSEELIASRLVPLLLNQLVFAEPVAVKSFLPYLLGPKKDHAQGETPCLLSPALFQSRVIPVLLQLFEVHEEHVRMVLLSHIEAYVEHFTQEQLKKVILPQVLLGLRDTSDSIVAITLHSLAVLVSLLGPEVVVGGERTKIFKRTAPSFTKNTDLSLEDSPMCVVCSHHSQISPILENPFSSIFPKCFFSGSTPINSKKHIQRDYYNTLLQTGDPFSQPIKFPINGLSDVKNTSEDSENFPSSSKKSEEWPDWSEPEEPENQTVNIQIWPREPCDDVKSQCTTLDVEESSWDDCEPSSLDTKVNPGGGITATKPVTSGEQKPIPALLSLTEESMPWKSSLPQKISLVQRGDDADQIEPPKVSSQERPLKVPSELGLGEEFTIQVKKKPVKDPEMDWFADMIPEIKPSAAFLILPELRTEMVPKKDDVSPVMQFSSKFAAAEITEGEAEGWEEEGELNWEDNNW [SCYL3]”, the thermal stability score was determined as 0.969 in the series on HeLa Kyoto [1] (setting [4]) and 0.364 in the series with HeLa Kyoto [1] (cell cycle stage: mitosis). For the same sequence, the “solubility change mitosis (log2)” value with HeLa Kyoto [2] was -0.0596. Besides, the “solubility in G1/S (log2)” value with HeLa Kyoto [3] was -0.0689.

“MKCEHCTRKECSKKTKTDDQENVSADAPSPAQENGEKGEFHKLADAKIFLSDCLACDSCMTAEEGVQLSQQNAKDFFRVLNLNKKCDTSKHKVLVVSVCPQSLPYFAAKFNLSVTDASRRLCGFLKSLGVHYVFDTTIAADFSILESQKEFVRRYRQHSEEERTLPMLTSACPGWVRYAERVLGRPITAHLCTAKSPQQVMGSLVKDYFARQQNLSPEKIFHVIVAPCYDKKLEALQESLPPALHGSRGADCVLTSGEIAQIMEQGDLSVRDAAVDTLFGDLKEDKVTRHDGASSDGHLAHIFRHAAKELFNEDVEEVTYRALRNKDFQEVTLEKNGEVVLRFAAAYGFRNIQNMILKLKKGKFPFHFVEVLACAGGCLNGRGQAQTPDGHADKALLRQMEGIYADIPVRRPESSAHVQELYQEWLEGINSPKAREVLHTTYQSQERGTHSLDIKW [NARF]”: the thermal stability score in the series with HeLa Kyoto [1] (setting [4]) was -0.279; with HeLa Kyoto [1] (cell cycle stage: mitosis) it was -0.0946. Also, the “solubility change mitosis (log2)” value in the series with HeLa Kyoto [2] was -0.273. For the same sequence, the “solubility in G1/S (log2)” value with HeLa Kyoto [3] was determined as 0.474.

For “MKEGRGSFSVERGPRKERETAQSGMWKGNSPAGSQGAAMEGTGGELGGQGNWGPEDAPGLLARASLIMLPWPLPLASSALTLLFGALTSLFLWYCYRLGSQDMQALGAGSRAGGVRGGPVGCSEAGGPSPGGPGDPGEGPRTEGLVSRRLRAYARRYSWAGMGRVRRAAQGGPGPGRGPGVLGIQRPGLLFLPDLPSAPFVPRDAQRHDVELLESSFPAILRDFGAVSWDFSGTTPPPRGWSPPLAPGCYQLLLYQAGRCQPSNCRRCPGAYRALRGLRSFMSANTFGNAGFSVLLPGARLEGRCGPTNARVRCHLGLKIPPGCELVVGGEPQCWAEGHCLLVDDSFLHTVAHNGSPEDGPRVVFIVDLWHPNVAGAERQALDFVFAPDP [ASPHD1]”, the thermal stability score came out at 1.03 in the series on HeLa Kyoto [1] (setting [4]) and 1.87 in the series with HeLa Kyoto [1] (cell cycle stage: mitosis). The “solubility change mitosis (log2)” value with HeLa Kyoto [2] is -0.229. In addition, the “solubility in G1/S (log2)” value in the series with HeLa Kyoto [3] was determined as 0.213.

As for “MKHINLSFAACGFLGIYHLGAASALCRHGKKLVKDVKAFAGASAGSLVASVLLTAPEKIEECNQFTYKFAEEIRRQSFGAVTPGYDFMARLRSGMESILPPSAHELAQNRLHVSITNAKTRENHLVSTFSSREDLIKVLLASSFVPIYAGLKLVEYKGQKWVDGGLTNALPILPVGRTVTISPFSGRLDISPQDKGQLDLYVNIAKQDIMLSLANLVRLNQALFPPSKRKMESLYQCGFDDTVKFLLKENWFE [PNPLA4]”, the thermal stability score was 0.304 in the series with HeLa Kyoto [1] (setting [4]) and 1.11 in the series on HeLa Kyoto [1] (cell cycle stage: mitosis). In addition, in the series with HeLa Kyoto [2], the “solubility change mitosis (log2)” value is -0.145. Further, the “solubility in G1/S (log2)” value with HeLa Kyoto [3] was 0.107.
